Where no end group is shown, it is not given here. Side-chain parts run from the residue outwards. maleimide = maleimide group (reactive functional group for coupling a ligand); EO 2 kDa = ethylene oxide linker of molecular weight 2000

In experiment [1] the target is T1, HER2 (epidermal growth factor receptor 2) on N87 cells (UniProt P04626 23-1255, limits assumed).
T1 construct: whole, on cells; N87 cells are used as HER2-positive cells; also called HER2-positive cells (N87); HER2-expressing cells
Briefly: saturation binding to N87 cells, Scatchard plot, apparent Kd; HBP1 particle. The protocol: (§1) Each particle was evaluated for its binding capability to HER2-expressing cells. On the day before evaluation, HER2-positive cells (N87 cells) were seeded over a 24-well plate (5×10⁵ cells/well). Next day, after medium removal, 200 μL of a growth medium was placed therein, and the particle sample was then added to each well. The plate was left standing in a CO₂ incubator at 37° C. for 4 hours. Then, the medium containing the particle was removed. The wells were fully washed twice with 1 mL of PBS. After removal of PBS, 1% Triton-X100/PBS solution was added at a concentration of 150 μL/well for cell lysis. The cells were incubated at room temperature for 2 hours or longer. […] The amount of iron in this acid lysate of the sample (6 N HCl solution, 300 μL) was measured to determine the concentration of the particle bound to the cell. A Scatchard plot was prepared from the saturation binding curve of the particle for N87, and an apparent equilibrium dissociation constant (Kd) of the particle for the cell was determined.
(§2) According to Example 8, a Scatchard plot was prepared from the saturation binding curve of each particle for N87 cells, and an apparent equilibrium dissociation constant (Kd) of the particle for the cell was determined.

Experiment [2] concerns the target T1, HER2 (epidermal growth factor receptor …). Briefly: saturation binding to N87 cells, Scatchard plot, apparent Kd. As for the experimental part:
(§3) Each particle was evaluated for its binding capability to HER2-expressing cells. On the day before evaluation, HER2-positive cells (N87 cells) were seeded over a 24-well plate (5×10⁵ cells/well). Next day, after medium removal, 200 μL of a growth medium was placed therein, and the particle sample was then added to each well. The plate was left standing in a CO₂ incubator at 37° C. for 4 hours. Then, the medium containing the particle was removed. The wells were fully washed twice with 1 mL of PBS. After removal of PBS, 1% Triton-X100/PBS solution was added at a concentration of 150 μL/well for cell lysis. The cells were incubated at room temperature for 2 hours or longer. Subsequently, concentrated hydrochloric acid (12 N) was added at a concentration of 150 μL/well, and the cells were incubated at room temperature for 2 hours or longer. The amount of iron in this acid lysate of the sample (6 N HCl solution, 300 μL) was measured to determine the concentration of the particle bound to the cell. A Scatchard plot was prepared from the saturation binding curve of the particle for N87, and an apparent equilibrium dissociation constant (Kd) of the particle for the cell was determined.
as §2

In experiment [3] the target is T2, Recombinant Human ErbB2/Fc Chimera (R&D Systems, Inc.) (human, UniProt P04626 23-652).
T2 construct: Bought; Amine-coupled to a CM-5 chip, about 1000 to 2000 RU; also called HER2; antigen; Fc part of the bought chimera not given
The experiment in a line: SPR (Biacore X), ErbB2/Fc on CM-5 chip, Scatchard plot of Req, apparent Kd of the particle. A general note: In SPR one partner is held on a chip, and binding of the other changes the refractive index at the surface.

For experiment [4], the target named is T1, HER2 (epidermal growth factor receptor …). Briefly: saturation binding to N87 cells (cell-bound iron measured), Scatchard plot, apparent Kd. As for the experimental part: as §3
Experiment [5] has the same target. Briefly: saturation binding to N87 cells, Scatchard plot, apparent Kd; HBP3 particle. As for the experimental part: as §1, §2
Experiment [6] shares this target. Briefly: saturation binding to N87 cells, Scatchard plot, apparent Kd; HBP2 particle. The protocol: as §1, §2

B1: HBP1-EO-NP-200: HER2-binding peptide-immobilized 200-nm particle containing an iron oxide particle (peptide)
peptide: MARSGLGGKGSC([maleimide-PEG 300-iron oxide nanoparticle 200 nm])
modifications: not fully specified
With B1, in experiment [1], the Kd was 670 pM.

B2: HBP4-EO2k-NP-200: HER2-binding peptide-immobilized 200-nm particle with ethylene oxide linker of molecular weight 2000 (peptide)
peptide: MARSGLGGKGSC([maleimide-EO 2 kDa-iron oxide nanoparticle 200 nm])
modifications: not fully specified
B2: the Kd in experiment [2] worked out at 110 pM.

B3: HBP-EO-NP-20: HER2-binding peptide-immobilized 20-nm particle containing an iron oxide particle (peptide)
peptide: MARSGLGGKGSC([maleimide-PEG 300-iron oxide nanoparticle 20 nm])
modifications: not fully specified
As to B3, the Kd was 36700 pM in experiment [3] and 78000 pM in experiment [4].

B4: HBP3-EO-NP-200: HER2-binding peptide-immobilized 200-nm particle containing an iron oxide particle (peptide)
peptide: MARSGLGGKGSC([maleimide-PEG 300-iron oxide nanoparticle 200 nm])
modifications: not fully specified
With B4, the Kd in experiment [5] was 490 pM.

B5: HBP1-EO2k-NP-200: HER2-binding peptide-immobilized 200-nm particle with ethylene oxide linker of molecular weight 2000 (peptide)
peptide: MARSGLGGKGSC([maleimide-EO 2 kDa-iron oxide nanoparticle 200 nm])
modifications: not fully specified
As for B5, in experiment [2], the Kd was found to be 70 pM.

B6: HBP2-EO-NP-200: HER2-binding peptide-immobilized 200-nm particle containing an iron oxide particle (peptide)
peptide: MARSGLGGKGSC([maleimide-PEG 300-iron oxide nanoparticle 200 nm])
modifications: not fully specified
Regarding B6, the Kd in experiment [6] is 430 pM.

B7: HBP2-EO2k-NP-200: HER2-binding peptide-immobilized 200-nm particle with ethylene oxide linker of molecular weight 2000 (peptide)
peptide: MARSGLGGKGSC([maleimide-EO 2 kDa-iron oxide nanoparticle 200 nm])
modifications: not fully specified
As for B7, the Kd in experiment [2] worked out at 90 pM.

B8: HBP3-EO2k-NP-200: HER2-binding peptide-immobilized 200-nm particle with ethylene oxide linker of molecular weight 2000 (peptide)
peptide: MARSGLGGKGSC([maleimide-EO 2 kDa-iron oxide nanoparticle 200 nm])
modifications: not fully specified
Regarding B8, in experiment [2], the Kd was 80 pM.
